This data set concerns the molecule itself. Put plainly: SDS-PAGE immunoblot of the purified protein; anti-PA tag immunoblot of the fractions of the PA-tag column purification of recombinant TRIC-A from CHO cells (buffers with 0.1% DM); bands marked as monomer, dimer and trimer. For orientation: In western blotting, separated proteins are transferred to a membrane and probed.

B1: mouse TRIC-A (type A trimeric intracellular cation channel), full length, with an N-terminal PA-tag (natural protein, UniProt Q3TMP8 1-298, looked up)
chain: MDLMSALSLGELALSFSRVPLFPVFDLSYFIVSIIYLKYEPGAVELSRRHPVASWLCAMLHCFGSYILADLLLGEPIIDYFSNSSSILLASGVWYLIFFCPLDLFYKCVCFLPVKLIFVAMKEVVRVRKIAVGIHHAHHHYHHGWFIMIATGWVKGSGVALLSNVEQLLRGVWKPETNEILHMSFPTKASLYGAILFTLQQTRWLPVSKASLIFVFTMFMVSCKVFLTATHSHSSPFDILEGYICPVLFGATWGGDHHHDNHGAPHGMGLGTQHSGLPAKAKEELGEGSRKKKTKKAD
notes: TRIC-A (trimeric intracellular cation channel type A), mouse, full-length cDNA; The introduction says, citing other work, that TRIC channels are trimers of three monomers of about 30 kDa; also called purified TRIC-A; recombinant TRIC-A; not shown: PA-tag, N-terminal, kept
Take B1: the binding result is on record as “binds”.

Values taken from PMC5509884, “Dampened activity of ryanodine receptor channels in mutant skeletal muscle lacking TRIC‐A” (The Journal of Physiology, 2017).
